Assay results as given in the nanobody polyreactivity screen of Harvey et al. (2022).

Test: yeast display, Sf9 membrane polyspecificity reagent, FACS + sequencing; frameworks hold sequencing errors
In short: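 Synthetic nanobody libraries on Saccharomyces cerevisiae BJ5465 were galactose-induced for 36–48 hours, stained 1 hour at 4 °C with 10% biotinylated, detergent-solubilized Sf9 membrane reagent and enriched on streptavidin microbeads. FACS then separated cells into low and high (top ~1%) gates by anti-HA (expression) and streptavidin (reagent binding) fluorescence. Genes were colony-PCR amplified, MiSeq 2 × 250 sequenced and CDR-length filtered. A clone's polyreactivity label is that of its gate of origin.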

| Sequence | polyreactivity (PSR sort gate) |
| --- | --- |
| QVQLVESGGGLVQAGGSLRLSCAASGSIFNINAMGWYRHAPGKERELVAVITSRDGRTYYADSVKGRFTISRDNAKNTVYLQMNSLKPEDTAVYYCAADVVNRHYYFWGQGTQVTVSS | low polyreactivity |
| QVQLVESGGGLVQAGGSLRLSCAASGRTFFPYAMGWYRQAPGKEREFVAAITKTDDTTYYADSVKGRFTISRDNAKNTVYLQMNSLKPEDTAVYYCNAGDTQIRFYYWGQGTQVNVSS | low polyreactivity |
| QVQLVESGGGLVQAGGSLRLSCAASGRTFILYAMGWYRQAPGKERELVAAITRRGGRTYYADSVKGRFTISRDNAKNTVYLQMNSLKPEDTAVYYCAADQYYYTQPSDMDYWGQGTQVTVSS | high polyreactivity |
| QVQLVESGGGLVQAGGSLRLSCAASGSTFAIYAMGWYRQAPGKERELVAAISKSGGSTYYADSVKGRFTISRDNAKNTVYLQMNILKPEDTAVYYCARRQYAFGPYGFYYWGQGTQVTVSS | high polyreactivity |
| QFQLVESGGGLVQAGGSLRLSCAASGRIFGENARGWYSQATRKEREFVAVISISDASTYYADSVKGRFTITRDNAKNTVYLQMNSLKREDTAVDYCAADLTDFLYVASDYWGQGTQVTVSS | low polyreactivity |
| QVQLVESGGGLVQAGGSLRLSCAASGSIFEQNVMGWYRQAPGKERELVAAITRGGSTNYADSVKGRFTISRDNAKNTVYLQMNSLKPEDTAVYYCAKRRWLGPSTLDYWGQGTQVTVSS | low polyreactivity |
| QDLHVESGGGVVQAGGSLRVSCAASGRTFISYAMGWSRQAPGKERELVATITRDGRTNYADSVKGRFTFSRDNAKNTVYLQMNSLNAEDTAVYYCNADSRYRYDYWGQGSQVTVSS | low polyreactivity |
| QVQLVETGGGLVQAGGSLRLSCAASGRNFNWNTMGWYRQAPRKEREFDAAISGSGGSTYYADSVKGRFTISRDNAKNTVYLQMISLKPEDTAVYYCAKRLYYSYYDEMDYWGQGTQVTVSS | high polyreactivity |
| QVQLVESGGGLVQAGGSLRLSCAASGRIFPYNAMGWYRQAPGKERELVAAIDWRDNTYYADSVKGRFSISRDNAKNTVYLQMNSLKPEDTAVYYCNVDYTDYFLNKYDYWGQGTQVTVSS | low polyreactivity |
| QVQLVESGGGLVQAGGSLRLSCAASGRIFLVYAMGWYRQAPGKERELVAAITKRGGSTYYADSVKGRFTISRDNAKNTVYLQMNSLKPEDTAVYYCAADGYTRGYDYWGQGTQVTVSS | high polyreactivity |
| QVQLVESGGGLVQAGGSLRLSCAASGLNLAQYVMGWYRQAPGKERELVAAITWRGGGTYYADSVKGRFTISRDNAKYTVYLQMNSLKPEDTAVYYCNAVLYDGYVYNPGSTDDVDYWGQGTLVTVSS | high polyreactivity |
| QVQLVESGGGLVQAGGSLRISCAASGRTFDRYAMGWYREAPGKERELVAVIRFIGGSTYYADSVKGRFTISRDNAKKTVYLQRNSLIPEDTAVYYCAAEVYDSYFFGYEYWGQGTQVTVSS | low polyreactivity |
| QVQLVESGGGLVQAGGSHRLSCAASGSTYTYNAMGWYRQAPGKERELVAAISSSGGTTYYADSVKGRFTISRDNAKNTVYLQMTSLKPEDTAVYYCAKRWLYTSAFRIMDYWGQGTQVTVSS | high polyreactivity |
| QVQLVESGGGLDQAGGSLRLSCAASGITFQWYTMGWYIQAPGKERDLVATISSGGSTNYADSVKGRFTISRDNAKNTVYLQMKSLKPEDTAVYYCAKQPTVYHHYGLGYWGQGTQVTVSS | low polyreactivity |
| QVQLVESGGGLVQAGGSLRLSCAASGFTINFYGMGWYRQAPGKERELVAAITASGGGSTYYADSVKGRFTISRDNAKNTVYLQMNSLKPEDTAVYYCNADYTGSFYTYDYWGQGTQVTVSS | low polyreactivity |
| QVQLVESGGGLVQAGGSLRLSCAASGIIFRRYAMGWYRQAPGKERELVATITWSGGSTYYADSVKGRFTISRDNAKNTVYLQMNSLKPEDTAVYYCAKRGSRLYRLDYWGQGTQVTVSS | high polyreactivity |
| QVQLVESGVGLVQAVGSLRISCAASGRIFQPYAMGWYRQAPGNERELVARITRRGVSTYYADSVKGRFTISRENAKNTVYLQMNSLKPEDTAVYYCAAELFGGYYYWGLGTQVTVSS | high polyreactivity |
| QVQLVESGGGLVQAGGSLRLSCAASGRIYVIYGMGWYRQAPGKERELVATISWSGSSTSYADSVKGRFTISRDNAKNTVYLQMNSLKHEDTAVYYCNAPVQSETFDYWGQGTQVTVSS | high polyreactivity |
| QVQIVESGGGLVQAGGSLRLSCAASGSTFYRNAMGWYRQAPGKERELVAAIRWTGGNTYYADSVKGRFTISRDNAKNTVYLQMNSLKPEDTAVYYCAARSPLYGHGYWGQGTQVTVSS | high polyreactivity |
| QVQLVESGGGLVQEGGSLRLSCAASGSTFNYYAMGWYRQAPGKESELVARISWSGSTYADSVKGRFTISRDNAKNTVYLQMNSLKPEDTAVYYCAAPYVLKSHRGMDYWGQGTQVTVSS | low polyreactivity |
| QVQLVESGGGLVQAGGSLRLSCAASGSTFGKYAMGWYRQAPGKERELVARIDSGDRTRYADSVKGRFTISRDNAKNTVYLQMNSLKPEDTAVYYCAARYVGARNAYRMGYWGQGTQVTVSS | high polyreactivity |
| QVQLVESGGGLVQAGGSLRLSCAASGRIFVGYAMGWYRQAPGKERELVAAITKSGGRTYYADSVKGRFTISRDNAKNTVYLQMNSLKPEDTAVYFCAKYLGRQHEKDLGGMNYWGQGTQLTVSS | high polyreactivity |

| Sequence | polyreactivity (PSR sort gate) |
| --- | --- |
| QVQLVESGGGLVQAGGSLRLSCAASGITFDVYAMGWYRQAPGKERELVAAISGSGGSTYYADSVKGRFTISRDNAKNTVYLQMNSLKPEDTAVYYCAASGPDGQYLWYDYWGQGTQVTVSS | high polyreactivity |
| QVQLVESGGGLVQAGGSLRLSCAASGSTFYYYAMGWYRQAPGKERELVAAIDTSVDSTYYADSVKGRFTISRDNAKNTVYLQMNSLKPEDTAVYYCNARSRTGYTNRMYYWGQGTQVTVSS | high polyreactivity |
| QVQLVESGGGLVQAGGSLRLSCAASGRIFGPYAMGWYRQAPGKERELVATITWSGVSTYYADSVKGRFTISRDNAKNTVYLQMNSLKPEDTAVYYCNAKRTGQWFLHVPVYYWGQGTQVTVSS | low polyreactivity |
| QVQLVESGGGLVQAGGSLRITCAASGYTFGAYSMGWYRQAPWKERELVAAITVRAGRTYYADSVKGRFTISRDNAKNTVYLQMNSLKPEDTAVYYCAADGYLLYVQHPNGRRYDYWGQGTQVTVSS | low polyreactivity |
| QVQLVESGGGLVQAGGSLRLSCAASGSIFGSNAMGWYRQAPGKERELVAAISSGSTYYADSVKGRFTISRDNAKNTVYLQMNSLKPEDTAVYYCNARSLLYEFDYWGQGTQVTVSS | low polyreactivity |
| QVQLVESGGGLVQAGGSLRLSCAASGSTFSPYAMGCYRQAPGKERELVAAINYSSGSTYYADSVKGRFTISRDNAMNTVYLQLNSLKPEDTAVYYCATGWYAGFTYDYWGQGTQVTVSS | low polyreactivity |
| QVQLVESVGGLVQAGGSLRLSCAASGRIFLIYSMGWYRQAPGKERELVADISKGGSSTYYADSVKGRFTISRDNAKNTVYLQMNSLKPEDSAVYYCAASGRWTGRQAAYDYWGQGTQVTVSS | high polyreactivity |
| QVQLVESGGGLVQAGGSLRLSCAASGISSWYYAMGWYRQAPGKERELVAAITSDGRTNYADSVKGRFTISRDNAKNTVYLQMKSLKPEDTAVYYCAAARRVGVSHYRYGYWGHGTQVTVSS | high polyreactivity |
| QVQLEESGGGLVQAGGSLRLSCAASGSIFRNYAIGWYRQAPGKEREFVAANTYSGGSTHYADSVKGRFTISRDNAKNTVYLQMNSLKPEDTAVYYCAADYYWRVHYGYWGQGTQVTVSS | high polyreactivity |
| QVHLVESGGGLVQAGGSLRLSCAASGSTCYWYTMGWYRKAPGKERELVARISSSGSTNYADSVKGRFTISRDNEKNTVYLLMNILKAEDTAVYYCNIDWFYRGYDYWGQGTQVTVSS | high polyreactivity |
| QVQLVESGGGLVQAGGSLRLSCAASGRIFFIYAMGWYRQAPGKERELVAAITWRGGRTYYADSVKGRFTISRDNAKNTVYLQMNSLKPEDTAVYYCAADYRDSYLFYYWGQGTQVTVSS | high polyreactivity |
| QVQLVESGGGLVQAGGSLRLSCAASGFIFKRYAMGWYRQAPGKERELVAVITRSGGSTYYADSVKGRFTISRDNAKNTVYLQMNSLKPEDTAVYYCAVDFTDRGYDYWGQGTQVTVSS | high polyreactivity |
| QVQLVESGGGLVQAGGSLSLSCAASGIIFYDYAMGWYRQAPGKERELVAVISRSGGSTYYADSVKGRFTISRDNAKNTVYLQMNSLNPEDTAVYYCARAYSLRVVTGDYWGQGTQVTVSS | high polyreactivity |
| QVQLVESGGGLVQAGGSLRLSCAASGFIFTNVMGWYRQAPGKERELVASISSGGRTYYADSVKGRFTISRDNAKNTVYLQLNSLKPEDTAVYYCAKKKLLSVPARGYDYVYYWGQGTQVTVSS | high polyreactivity |
| QDQLVESGGGIVQEGGILRLSCAASGRIFVGYAMGWYRQAPGKERELVAAIRRYGTGTYYADSVKGRFTISRDNAKYTVYLKLNSLKTEDTAVYYCDAPELALYFPYDYWGQGTQVTVSS | low polyreactivity |
| QVQLVESGGGLVQAGGSLRLSCAASGRIFGKYAMGWYRQAPWKERELVATISLSGVRTYYADSVKGRFTISRDNAKNTVYLQMNSLKPEDTAVYYCAAGYSSNGDYWGQGTQVTVSS | low polyreactivity |
| QVQLVESGGGLVQAGGSLRLSCAASGITFGYYAMGWSRQAPGKERELVAAINWRGGNTYYADSVKGRFTISRDNAKNTVYLQMNSLKPEDTAVYYCNALYKRYTDYDYWGQGSQVTVSS | high polyreactivity |
| QVQLVESGGGLVQAGGSHRLSFAASGSLFYWYAMGWYRQAPGKERELVAAITTSGGRTYYADSVKGRFTISRDNAKNTVYLQMNSLIPEDSAVYYCNSAALFRYYDRWKTAYDYWGQGTQVTGSS | high polyreactivity |
| QVQLVESGGGLVQAGGSLRLICAASGRIIARNAMGWYRQAPGKERELVAAITARGARTYYADSVKGRFTISRDNAKNTVYLQMNSLKPEDTAVYYCAVVQGNVYYTGDDYWGQGTQVTVSS | high polyreactivity |
| QVQLQESGGGLVQAGGSLRLSCAASGTISDRAGMGWYRQAPAKNAIVATIDRGTNTNYADSVKGRFTISRDNAKNTVYLQMNSLKPEDTAVYNCAAVGRYYIYLDYWGQGTQVTVSS | low polyreactivity |
| QVQLVESGGGLVLAGGSLRLSCAASGSTFEYNAMGWYRPAPGKERELVASSTNYADSVKGRFTISRDNAKNTVSLQRNSLKPEDTAVNYSAREQGVNRNHDYWGQGTQVTVSS | low polyreactivity |
